These results are taken from IntAct's records for PubMed 24997597.

B1: Centrosomal protein of 152 kDa (Homo sapiens), O94986-3 (parent)
chain: MSLDFGSVALPVQNEDEEYDEEDYEREKELQQLLTDLPHDMLDDDLSSPELQYSDCSEDGTDGQPHHPEQLEMSWNEQMLPKSQSVNGYNEIQSLYAGEKCGNVWEENRSKTEDRHPVYHPEEGGDEGGSGYSPPSKCEQTDLYHLPENFRPYTNGQKQEFNNQATNVIKFSDPQWNHFQGPSCQGLEPYNKVTYKPYQSSAQNNGSPAQEITGSDTFEGLQQQFLGANENSAENMQIIQLQVLNKAKERQLENLIEKLNESERQIRYLNHQLVIIKDEKDGLTLSLRESQKLFQNGKEREIQLEAQIKALETQIQALKVNEEQMIKKSRTTEMALESLKQQLVDLHHSESLQRAREQHESIVMGLTKKYEEQVLSLQKNLDATVTALKEQEDICSRLKDHVKQLERNQEAIKLEKTEIINKLTRSLEESQKQCAHLLQSGSVQEVAQLQFQLQQAQKAHAMSANMNKALQEELTELKDEISLYESAAKLGIHPSDSEGELNIELTESYVDLGIKKVNWKKSKVTSIVQEEDPNEELSKDEFILKLKAEVQRLLGSNSMKRHLVSQLQNDLKDCHKKIEDLHQVKKDEKSIEVETKTDTSEKPKNQLWPESSTSDVVRDDILLLKNEIQVLQQQNQELKETEGKLRNTNQDLCNQMRQMVQDFDHDKQEAVDRCERTYQQHHEAMKTQIRESLLAKHALEKQQLFEAYERTHLQLRSELDKLNKEVTAVQECYLEVCREKDNLELTLRKTTEKEQQTQEKIKEKLIQQLEKEWQSKLDQTIKAMKKKTLDCGSQTDQVTTSDVISKKEMAIMIEEQKCTIQQNLEQEKDIAIKGAMKKLEIELELKHCENITKQVEIAVQNAHQRWLGELPELAEYQALVKAEQKKWEEQHEVSVNKRISFAVSEAKEKWKSELENMRKNILPGKELEEKIHSLQKELELKNEEVPVVIRAELAKARSEWNKEKQEEIHRIQEQNEQDYRQFLDDHRNKINEVLAAAKEDFMKQKTELLLQKETELQTCLDQSRREWTMQEAKRIQLEIYQYEEDILTVLGVLLSDTQKEHISDSEDKQLLEIMSTCSSKWMSVQYFEKLKGCIQKAFQDTLPLLVENADPEWKKRNMAELSKDSASQGTGQGDPGPAAGHHAQPLALQATEAEAEENNKVVEELIEENNDMKNKLEELQTLCKTPPRSLSAGAIENACLPCSGGALEELRGQYIKAVKKIKCDMLRYIQESKERAAEMVKAEVLRERQETARKMRKYYLICLQQILQDDGKEGAEKKIMNAASKLATMAKLLETPISSKSQSKTTQSALPLTSEMLIAVKKSKRNDVNQKIPCCIESKSNSVNTITRTLCEQAPKRRAACNLQRLLENSEHQSIKHVGSKETHLEFQFGDGSCKHLNSLPRNVSPEFVPCEGEGGFGLHKKKDLLSDNGSESLPHSAAYPFLGTLGNKPSPRCTPGPSESGCMHITFRDSNERLGLKVYKCNPLMESENAASEKSQGLDVQEPPVKDGGDLSDCLGWPSSSATLSFDSREASFVHGRPQGTLEIPSESVKSKQFSPSGYLSDTEESNMICQTMKCQRYQTPYLSEETTYLEPGKISVNCGHPSRHKADRLKSDFKKLSSTLPSSVCQQPSRKLIVPLSSQQDSGFDSPFVNLD
partner: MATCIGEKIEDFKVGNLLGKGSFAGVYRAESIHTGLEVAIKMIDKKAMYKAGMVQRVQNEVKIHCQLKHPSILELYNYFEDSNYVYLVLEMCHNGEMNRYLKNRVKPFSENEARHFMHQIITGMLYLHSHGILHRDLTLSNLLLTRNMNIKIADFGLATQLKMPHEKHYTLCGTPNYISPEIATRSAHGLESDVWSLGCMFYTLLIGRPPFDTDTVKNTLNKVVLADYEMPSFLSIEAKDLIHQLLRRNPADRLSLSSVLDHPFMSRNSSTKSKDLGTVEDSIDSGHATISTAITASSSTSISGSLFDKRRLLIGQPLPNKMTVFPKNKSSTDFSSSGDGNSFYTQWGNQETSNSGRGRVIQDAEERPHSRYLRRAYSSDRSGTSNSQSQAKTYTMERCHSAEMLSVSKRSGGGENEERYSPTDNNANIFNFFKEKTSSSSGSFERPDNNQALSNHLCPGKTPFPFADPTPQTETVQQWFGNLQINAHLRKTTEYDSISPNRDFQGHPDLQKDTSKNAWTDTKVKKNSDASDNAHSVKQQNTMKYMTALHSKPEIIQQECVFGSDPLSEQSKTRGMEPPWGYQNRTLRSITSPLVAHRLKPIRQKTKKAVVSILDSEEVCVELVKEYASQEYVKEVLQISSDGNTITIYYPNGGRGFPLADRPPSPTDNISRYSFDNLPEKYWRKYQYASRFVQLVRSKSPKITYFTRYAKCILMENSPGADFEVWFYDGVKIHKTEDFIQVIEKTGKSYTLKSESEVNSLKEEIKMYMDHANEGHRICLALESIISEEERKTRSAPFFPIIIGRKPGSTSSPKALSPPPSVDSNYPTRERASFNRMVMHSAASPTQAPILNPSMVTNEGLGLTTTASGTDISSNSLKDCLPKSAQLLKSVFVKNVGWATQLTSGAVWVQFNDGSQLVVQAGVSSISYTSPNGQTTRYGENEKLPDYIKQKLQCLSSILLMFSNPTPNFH
B2: Serine/threonine-protein kinase PLK4 (Homo sapiens), O00444 (parent)
chain: B1 partner

In one test the parent is B1. The conditions noted are these: with plk4_human PLK4, O00444.
Consider E21K, for which the “effect of a mutation on the interaction” value is on record as “decreasing interaction strength”.
With V8A, the “effect of a mutation on the interaction” value is given as “decreasing interaction strength”.

Variants of B2 are the subject of another test. The settings on record: with CEP152, O94986-3.
With K685A, the “effect of a mutation on the interaction” value is listed as “disrupting interaction strength”.
For K711A, the “effect of a mutation on the interaction” value is on record as “decreasing interaction strength”.
